Data on 8 molecules can be found in patent US20100135948A1 (University of Pennsylvania, published 2010).

Where no end group is shown, it is not given here.

For one experiment, the target named is T1, desmoglein 3 (human, UniProt P32926 50-615, limits assumed).
T1 construct: Antigen on commercial ELISA plates; also called Dsg3; Dsg 3
T1 sequence (looked up): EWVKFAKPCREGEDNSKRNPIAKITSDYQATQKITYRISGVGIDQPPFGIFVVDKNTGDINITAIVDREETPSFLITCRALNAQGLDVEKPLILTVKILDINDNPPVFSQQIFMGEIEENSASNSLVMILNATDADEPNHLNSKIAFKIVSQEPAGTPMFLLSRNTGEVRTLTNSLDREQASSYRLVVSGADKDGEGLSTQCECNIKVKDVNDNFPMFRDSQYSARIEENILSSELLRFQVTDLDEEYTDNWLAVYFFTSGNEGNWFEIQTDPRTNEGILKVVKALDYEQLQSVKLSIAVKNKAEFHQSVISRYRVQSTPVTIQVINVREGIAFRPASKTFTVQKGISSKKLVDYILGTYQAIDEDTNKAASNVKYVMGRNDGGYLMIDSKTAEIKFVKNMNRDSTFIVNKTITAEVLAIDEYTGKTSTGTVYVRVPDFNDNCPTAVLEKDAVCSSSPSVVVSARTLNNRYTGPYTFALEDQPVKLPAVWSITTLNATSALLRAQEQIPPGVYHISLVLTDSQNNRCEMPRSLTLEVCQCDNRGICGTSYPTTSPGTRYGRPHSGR
In words: ELISA. On the technique in general: An ELISA detects its analyte on a solid surface through an enzyme-linked reagent.

Another experiment has as its target T2, (D31)2/28 scFv.
T2 construct: Human anti-Dsg3/Dsg1 scFv from the PV(1) phage library (pComb3X, nickel-purified, HA-detected); also called pathogenic PV mAb
As to the kind of experiment: ELISA inhibition, monoclonal peptide phage preincubated with PV scFv, Dsg plate (Dsg3 by paragraph 281). The method, then: (§1) For ELISA inhibition assays, anti-idiotypic reagents were pre-incubated with PV mAbs for one hour at 37° C. prior to incubation on Dsg3 or Dsg1 ELISA plates (Rhigene/MBL), which were otherwise processed according to manufacturer's instructions. Anti-idiotypic antisera were effective and dose responsive at dilutions ranging from 1:3 to 1:6400, while peptide phage were used in inhibition assays from 10⁸ to 10¹⁰ pfu/well. PV scFv binding, detected with HRP-conjugated anti-HA secondary antibody (Roche), was titrated to a final OD450 reading of 0.4-1.0, which was within the linear range of detection.
(§2) Select peptide phage were tested for their ability to inhibit binding of PV mAbs to Dsg substrates by ELISA (Table 4).

In another experiment the target is T3, (D31)2/29 scFv.
T3 construct: also called pathogenic PV mAb
The description is as above. The method, then:
as §1, §2

The next experiment concerns the target T4, (D31)12b/6 scFv.
T4 construct: also called nonpathogenic PV mAb
The description is as above. The method, then: as §1, §2

Another experiment deals with T5, (D3)3c/9 scFv.
T5 construct: also called pathogenic PV mAb
Described as above. As for the experimental part: as §1, §2

The target of the next experiment is T6, (D3)1d/2c scFv.
T6 construct: also called nonpathogenic PV mAb
The experiment is described as above. The method, then:
as §1, §2

B1: P14 peptide phage (peptide, not shown: large carriers)
peptide: TTLTLRH
modifications: also: displayed on phage, fused to pIII
notes: Monoclonal phage clone; tested as phage particle
Consider B1, for which the binding result with desmoglein 3 was “no binding”. The percent inhibition with (D31)2/28 scFv was determined as 15%; with (D31)2/29 scFv, 16%; with (D31)12b/6 scFv, 13%; in the experiment with (D3)3c/9 scFv, 5%; with (D3)1d/2c scFv, 8%.

B2: control peptide phage displaying a non-consensus sequence (peptide, not shown: large carriers)
peptide: DLNYFTLSSKRE
modifications: also: displayed on phage, fused to pIII coat protein, linker not given here
notes: Control phage clone; tested as phage particle; also called control phage
As to B2, the percent inhibition was 2% with (D31)2/28 scFv; 15% with (D31)2/29 scFv; 11% with (D31)12b/6 scFv; 8% with (D3)3c/9 scFv; 8% with (D3)1d/2c scFv.

B3: P4 peptide phage (peptide, not shown: large carriers)
peptide: ANKTSPFLMWRL
modifications: also: displayed on phage, fused to pIII
notes: Monoclonal phage clone from round 3 of screening with (D31)2/29 IgG; tested as phage particle
Consider B3, for which the binding result in the experiment with desmoglein 3 is given as “no binding”. The percent inhibition in the experiment with (D31)2/28 scFv came to 9%; with (D31)2/29 scFv, 78%; with (D31)12b/6 scFv it was 10%; in the experiment with (D3)3c/9 scFv it was 7%; in the experiment with (D3)1d/2c scFv, 14%.

B4: P8 peptide phage (peptide, not shown: large carriers)
peptide: TDKTPFLLWRVH
modifications: also: displayed on phage, fused to pIII coat protein, linker not given here
notes: as for B1
As for B4, the binding result in the experiment with desmoglein 3 is reported as “no binding”.

B5: P5 peptide phage (peptide, not shown: large carriers)
peptide: WANKQPTIIWRS
modifications: also: displayed on phage, fused to pIII coat protein, linker not given here
notes: as for B1
In the case of B5, in the experiment with desmoglein 3, the binding result is “no binding”.

B6: P7 peptide phage (peptide, not shown: large carriers)
peptide: YSNKTPHLQWRL
modifications: also: displayed on phage, fused to pIII coat protein, linker not given here
notes: as for B1
Consider B6, for which the binding result with desmoglein 3 is “no binding”. Also, the percent inhibition with (D31)2/28 scFv is 12%; in the experiment with (D31)2/29 scFv, 83%; with (D31)12b/6 scFv, 8%; with (D3)3c/9 scFv, 6%; in the experiment with (D3)1d/2c scFv, 9%.

B7: P9 peptide phage (peptide, not shown: large carriers)
peptide: AKNPPTLIWKHT
modifications: also: displayed on phage, fused to pIII coat protein, linker not given here
notes: as for B1
For the molecule B7, the binding result with desmoglein 3 is on record as “no binding”.

B8: P10 peptide phage (peptide, not shown: large carriers)
peptide: QHNKSPNLYWRS
modifications: also: displayed on phage, fused to pIII
notes: as for B1
For the molecule B8, the binding result in the experiment with desmoglein 3 is recorded as “no binding”.
